According to patent US10344330B2, “Glatiramer acetate response biomarker mRNA potency assay” (Mylan Inc., priority 2013, dated 2019):

Experiments:
Assay type in all cases: cell-based, mouse
[1] = system: mIL-4 mRNA in primary LN cells; assay: mIL-4 mRNA by real-time PCR in stimulated LN cells of immunized (SJL/J×BALB/C)F1 mice (Example I); conditions: GA 10, MBP 10, ConA 2.5 μg/mL; for mIL-4 mRNA Level: Experiment 1, GA-immunized (SJL/J×BALB/C)F1; for mIL-4 mRNA: reference 18S rRNA
Experimental: (§1) For each of the three experiments summarized in Table 1, female (SJL/J×BALB/C) F1 hybrid (Jackson Laboratory) mice were immunized by footpad injection with either 250 μg GMA (Mylan Pharmaceuticals, Inc.) and CFA (Sigma Aldrich), or Mannitol and CFA (as a negative control). The GA solution was diluted to 5 mg/mL with Dulbecco's Phosphate-buffered saline. A dose solution was then prepared by mixing the diluted GA solution (5 mg/mL) and CFA (1:1) until well-emulsified. Each mouse received a total injection volume of 0.1 mL (250 μg GA). Animals were immunized on Day 0. Immunized animals were sacrificed via cervical dislocation on Day 10 following immunization. […] The LN were washed 3 times with −5 mL of RPMI medium, and the LN cells isolated by pressing the LN with a syringe plunger. […] The cell suspension was centrifuged at about 200×g for 10 minutes at about 4° C. and re-suspended in ice cold enriched DCCM-1 medium. The LN cells (2.5×10^6 cells/cm^2) were plated in the wells of a 48-well tissue culture plate and stimulated with GA or controls.
(§2) Expression of cytokine mRNA was quantitatively analyzed using a Real-Time PCR system (7500, Applied Biosystems).
(§3) (DCCM1 from Beit Haemek Ltd.; Cat. No. 05 010 1A). There was no MBP treatment for the 2-hour groups.
(§4) Group 1B animals were female (SJL/J×BALB/C) F1 hybrid (Jackson Laboratory) mice immunized by footpad injection with either 250 μg GA and CFA, or Mannitol and CFA (as a negative control). A dose solution was prepared by mixing a diluted GA solution (5 mg/mL) and CFA (1:1). Each mouse received a total injection volume of […] (250 μg GA). Animals were immunized on Day 0. Immunized animals were sacrificed via cervical dislocation on Day 10 following immunization. Lymph nodes from immunized mice were removed and isolated. LN cells (2.5×10^6 cells/cm^2) were plated in the wells of a 48-well tissue culture plate for stimulation with GA.
(§5) Expression of cytokine mRNA was quantitatively analyzed 4 and 6 hours after using a Real-Time PCR system (7500, Applied Biosystems).

[2] = system: mIL-5 mRNA in primary LN cells; assay: mIL-5 mRNA by real-time PCR in stimulated LN cells of immunized (SJL/J×BALB/C)F1 mice (Example I); conditions: GA 10, MBP 10, ConA 2.5 μg/mL; for mIL-5 mRNA Level: Experiment 1, GA-immunized (SJL/J×BALB/C)F1; for mIL-5 mRNA: not normalized to a reference gene
Experimental: as §1, §2, §3, §4, §5

IL-4 mRNA in LN cells = assay: IL-4 mRNA by real-time PCR in LN cells of GA-immunized CD-1, BALB/cByJ, SJL/J mice (Example III); conditions: stimulation 10 μg/mL, 6 hours
Experimental: (§6) On Day 0, mice were immunized with 250 μg GA (GMA, Mylan Pharmaceuticals, Inc.) and CFA. The GA solution (20 mg/mL) was diluted with Dulbecco's Phosphate-Buffered Saline to 5 mg/mL. The dosing formulation consisted of equal volumes of the diluted GA solution (5 mg/mL) and CFA solution, mixed until well-emulsified. Animals were weighed and allocated to groups. Animals were dosed by injection into four footpads. The injection volume per animal was 0.1 mL (about 10 μL into each front footpad, and 40 μL into each hind footpad).
(§7) Immunized animals were euthanized by cervical dislocation on Day 10 post-immunization. Lymph node cells were isolated from animals and treated with Myelin Basic Protein (MBP, a negative control), Concanavalin A (ConA, a positive control) or GA as shown in Table 16. Lymph nodes in the axillary and popliteal regions were removed aseptically in a purifier clean bench. […] The LN were then washed 3 times with −5 mL of RPMI medium, and isolated by pressing the LN with a syringe plunger. […] The cell suspension was centrifuged at about 200×g for 10 minutes at about 4° C. and re-suspended in ice cold enriched DCCM-1 medium. Cells were seeded in 96-well tissue culture plates.
(§8) LN cells isolated from GA-immunized animals were stimulated with GA (GMA, Mylan Pharmaceuticals, Inc.) at concentrations as indicated in Tables 16 and 17. A positive control was prepared by treating LN cells with 2.5 μg/mL concavalin A (ConA, a non-specific T cell stimulant). Myelin basic protein (MBP, 10 μg/mL) and enriched DCCM-1 medium served as negative controls. The cells from all groups each were stimulated with the same GA lot. Each reaction was set up in triplicate.
(§9) After incubation at about 37° C. in a humidified CO2 incubator for 6 hours, the cells were lysed for total RNA isolation. Total RNA was isolated from treated LN cells using SV 96 Total RNA Isolation System according to the manufacturer's protocol (Promega, Cat. #Z3500). Cells were washed once with Phosphate Buffered Saline (PBS) and lysed in RNA lysis buffer. The lysate was transferred to wells of the SV 96 binding plate. Samples were washed with RNA wash solution and treated with DNase. Total RNA was eluted with nuclease-free water from the binding plate.
(§10) After the reverse transcriptase reaction was completed, cDNA samples were used directly for real-time PCR to measure the response biomarker mRNA levels produced by the stimulated cells. […] All probes for target genes contained FAM dye, and probes for the internal control contained VIC®/MGB dye. Samples will be prepared and run in 96-well plates using a Real-Time PCR system (7500, Life Technologies). This system allows direct detection of PCR-product formation by measuring the increase in fluorescent emission continuously during the PCR reaction. A relative quantitation method was used to analyze changes in mouse IL-2, IL-4, IL-5, IL-10, IL-13, IFN-γ and TNF-α expression in GA-treated samples relative to the untreated control (enriched DCCM-1 treated) samples. The Real-Time PCR program was:
(§11) The levels of mouse cytokine amplicons (IL-2, IL-4, IL-5, IL-10, IL-13, mIFN-γ and TNF-α) were normalized to internal probe levels (GAPDH) from the same samples. The following equations were used to calculate the relative increase in response to GA stimulation compared to the control sample: ΔCT=CT_target−CT_reference ΔΔCT=−ΔCT_Treated−CT_VC

IL-10 mRNA in LN cells = assay: IL-10 mRNA by real-time PCR in LN cells of GA-immunized CD-1, BALB/cByJ, SJL/J mice (Example III); conditions: stimulation 10 μg/mL, 6 hours
Experimental: as §6, §7, §8, §9, §10, §11

[3] = system: IL-1b secreted by LN cells; assay: IL-1b secretion by GA-stimulated LN cells, MSD 9-plex ELISA (Example II); conditions: 21 hr
[4] = Group 1B (GA + CFA), 4 hours post-stimulation
[5] = Group 1B (GA + CFA), 6 hours post-stimulation
[6] = Group 2B (Mannitol + CFA), 4 hours post-stimulation
[7] = Group 2B (Mannitol + CFA), 6 hours post-stimulation
[8] = Group 2C: BALB/cByJ, GA-immunized

B1: MBP: myelin basic protein, a negative control (protein, UniProt P02686 1-304, looked up)
Myelin basic protein: MGNHAGKRELNAEKASTNSETNRGESEKKRNLGELSRTTSEDNEVFGEADANQNNGTSSQDTAVTDSKRTADPKNAWQDAHPADPGSRPHLIRLFSRDAPGREDNTFKDRPSESDELQTIQEDSAATSESLDVMASQKRPSQRHGSKYLATASTMDHARHGFLPRHRDTGILDSIGRFFGGDRGAPKRGSGKDSHHPARTAHYGSLPQKSHGRTQDENPVVHFFKNIVTPRTPPPSQGKGRGLSLSRFSWGAEGQRPGFGYGGRASDYKSAHKGFKGVDAQGTLSKIFKLGGRDSRSGSPMARR
mIL-4 mRNA Level ([1]; 4 hour post stimulation): 0.8 fold change vs control | mIL-4 mRNA Level ([1]; 6 hour post stimulation): 0.6 fold change vs control | mIL-4 mRNA Level ([1]; 24 hour post stimulation): 1.1 fold change vs control | mIL-4 mRNA [1, 4]: 0.5 fold change vs control | mIL-4 mRNA [1, 5]: 0.3 fold change vs control | mIL-4 mRNA [1, 6]: 1.4 fold change vs control | mIL-4 mRNA [1, 7]: 0.8 fold change vs control | mIL-5 mRNA Level ([2]; 4 hour post stimulation): 0.8 fold change vs control | mIL-5 mRNA Level ([2]; 6 hour post stimulation): 0.2 fold change vs control | mIL-5 mRNA Level ([2]; 24 hour post stimulation): 0.8 fold change vs control | mIL-5 mRNA [2, 4]: 1.4 fold change vs control | mIL-5 mRNA [2, 5]: 0.9 fold change vs control | mIL-5 mRNA [2, 6]: 1.1 fold change vs control | mIL-5 mRNA [2, 7]: 1.1 fold change vs control | IL-4 mRNA Expression (IL-4 mRNA in LN cells; Group 1C: CD-1, GA-immunized): 0.6 fold change vs control | IL-4 mRNA Expression (IL-4 mRNA in LN cells; [8]): 1.1 fold change vs control | IL-4 mRNA Expression (IL-4 mRNA in LN cells; Group 3C: SJL/J, GA-immunized): 0.5 fold change vs control | IL-10 mRNA Expression (IL-10 mRNA in LN cells; Group 1C: CD-1, GA-immunized): 0.7 fold change vs control | IL-10 mRNA Expression (IL-10 mRNA in LN cells; [8]): 1.0 fold change vs control | IL-10 mRNA Expression (IL-10 mRNA in LN cells; Group 3C: SJL/J, GA-immunized): 0.3 fold change vs control | IL-1b secretion response ratio (treated cell medium to control DCCM1 medium) ([3]; BALB/cByJ, immunized GA Intraplantar): 1.15 | IL-1b secretion response ratio (treated cell medium to control DCCM1 medium) ([3]; BALB/cByJ, immunized GA Lower Limb): 0.96 | IL-1b secretion response ratio (treated cell medium to control DCCM1 medium) ([3]; C57BL10J, immunized GA Lower Limb): 1.17 | IL-1b secretion response ratio (treated cell medium to control DCCM1 medium) ([3]; CD-1, immunized GA Lower Limb): 1.00
